Test results as given in paper PMC8692152, “Cellular Id1 inhibits hepatitis B virus transcription by interacting with the novel covalently closed circular DNA-binding protein E2F4” (International Journal of Biological Sciences, 2022).

Biological target: the molecule itself
Assay: SEC; Superdex 75, 50 mM Tris-HCl pH 8.0, 300 mM NaCl; calibrated with molecular mass standards

B1: E2F4_(1-88) (domain or fragment)
chain: not shown
notes: The section on ITC sample preparation describes an E2F4_(1-88) protein purified on a GST column and cut with 3C protease; also called pET28-E2F4_(1-88)
**Q.** B1 was tested. Which “stoichiometry N” value did it give?
**A.** 2
